The record followed here is paper PMC5009806 (2016).

Usually Kd stands for the constant that tells how readily two partners part at equilibrium. Low readings indicate a tighter complex, high ones a looser complex.

For the assay, the target named is amyloid beta monomer (Homo sapiens, UniProt P05067). As to the kind of experiment: SPR. For orientation: In SPR one partner is held on a chip, and binding of the other changes the refractive index at the surface.

B1: Gantenerumab (antibody, V domains shown)
VH: QVELVESGGGLVQPGGSLRLSCAASGFTFSSYAMSWVRQAPGKGLEWVSAINASGTRTYYADSVKGRFTISRDNSKNTLYLQMNSLRAEDTAVYYCARGKGNTHKPYGYVRYFDVWGQGTLVTVSS
VL: DIVLTQSPATLSLSPGERATLSCRASQSVSSSYLAWYQQKPGQAPRLLIYGASSRATGVPARFSGSGSGTDFTLTISSLEPEDFATYYCLQIYNMPITFGQGTKVEIK
In turn, B1 showed a Kd of 18 nM.
